Measured values as given in patent US20200031927A1 (Memorial Sloan Kettering, published 2020).

Tests used:
[1] = target: T1, soluble KIR3DL1*002-Fc (human, UniProt P43629 22-338); test: SPR (BIACORE T-100), kinetics
T1 construct: also called KIR3DL1 allele 002; Allele 002; not shown: Fc domain

[2] = target: T2, soluble KIR3DL1*001-Fc (human, UniProt P43629 22-340); test: BLI (ForteBio QK), hIgG1; ForteBio, hIgG1, allele 001 (Table 2)
T2 construct: also called KIR3DL1 allele 001; KIR3DL1 allele-001 antigen; not shown: Fc domain

[3] = target: T3, soluble KIR3DL1*033-Fc (human, UniProt P43629 22-340); test: BLI (ForteBio QK), hIgG1
T3 construct: also called KIR3DL1 allele 033; Allele 033; not shown: Fc domain

[4] = target: T4, soluble KIR3DL1*007/015-Fc (human, UniProt P43629 22-338); test: BLI (ForteBio QK), hIgG1
T4 construct: also called KIR3DL1 allele 007/015; CD158e allele 007/015; not shown: Fc domain

[5] = target: T1, soluble KIR3DL1*002-Fc; test: BLI (ForteBio QK), hIgG1
[6] = target: T5, soluble KIR3DL1*020-Fc (human, UniProt P43629 22-339); test: BLI (ForteBio QK), hIgG1
T5 construct: also called KIR3DL1 allele 020; CD158e allele 020; not shown: Fc domain

[7] = target: T2, soluble KIR3DL1*001-Fc; test: BLI (Forte-Bio), partial fit, IgG
[8] = target: T1, soluble KIR3DL1*002-Fc; test: SPR (BIACORE T-100), kinetics; Biacore T-100, allele 002
[9] = target: T3, soluble KIR3DL1*033-Fc; test: SPR (BIACORE T-100)
[10] = target: T1, soluble KIR3DL1*002-Fc; test: SPR (BIACORE T-100)
[11] = target: T2, soluble KIR3DL1*001-Fc; test: SPR (BIACORE T-100)
[12] = target: T2, soluble KIR3DL1*001-Fc; test: BLI (ForteBio QK), hIgG1

T3 sequence (P43629 other isoform, or with tags, fused parts or gaps): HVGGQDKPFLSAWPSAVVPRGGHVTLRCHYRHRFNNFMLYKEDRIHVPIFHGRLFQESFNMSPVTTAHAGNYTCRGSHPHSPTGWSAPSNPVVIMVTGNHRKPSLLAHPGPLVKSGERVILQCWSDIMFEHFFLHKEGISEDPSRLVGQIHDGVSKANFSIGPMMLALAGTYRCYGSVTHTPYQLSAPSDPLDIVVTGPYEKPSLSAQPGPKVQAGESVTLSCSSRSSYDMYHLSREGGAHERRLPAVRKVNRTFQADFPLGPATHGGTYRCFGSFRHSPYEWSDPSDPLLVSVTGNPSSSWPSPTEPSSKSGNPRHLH
T4 sequence (P43629 other isoform, or with tags, fused parts or gaps): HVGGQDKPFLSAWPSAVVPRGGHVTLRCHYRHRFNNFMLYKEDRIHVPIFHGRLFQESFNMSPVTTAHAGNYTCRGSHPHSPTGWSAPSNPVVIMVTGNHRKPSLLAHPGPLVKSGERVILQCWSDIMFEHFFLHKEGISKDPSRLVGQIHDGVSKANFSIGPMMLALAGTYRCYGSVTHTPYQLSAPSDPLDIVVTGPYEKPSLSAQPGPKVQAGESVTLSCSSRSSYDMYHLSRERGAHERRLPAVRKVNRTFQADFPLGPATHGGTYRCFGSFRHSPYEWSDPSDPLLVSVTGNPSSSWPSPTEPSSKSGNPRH
T5 sequence (P43629 other isoform, or with tags, fused parts or gaps): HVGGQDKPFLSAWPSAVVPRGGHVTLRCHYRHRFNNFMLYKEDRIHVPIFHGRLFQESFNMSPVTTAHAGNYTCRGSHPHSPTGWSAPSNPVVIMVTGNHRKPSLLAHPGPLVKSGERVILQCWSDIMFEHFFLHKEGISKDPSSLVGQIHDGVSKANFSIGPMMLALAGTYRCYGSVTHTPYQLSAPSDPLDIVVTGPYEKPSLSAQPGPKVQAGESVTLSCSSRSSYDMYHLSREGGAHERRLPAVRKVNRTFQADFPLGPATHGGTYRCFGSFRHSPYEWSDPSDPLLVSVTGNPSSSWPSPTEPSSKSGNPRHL

Row | Binder | Kd [1] [µM] | koff [1] [s⁻¹] | kon [1] [M⁻¹ s⁻¹] | Kd [2] [µM] | Kd [3] [µM] | Kd [4] [µM] | Kd [5] [µM] | Kd [6] [µM] | koff [7] [s⁻¹] | kon [7] [M⁻¹ s⁻¹] | Kd [8] [µM] | Kd [9] [µM] | Kd [10] [µM] | Kd [11] [µM] | Kd [12] [µM] | Kd [7] [µM]
1 | ET160-42 (antibody, human IgG1, V domains shown, Tested as human IgG1 (hIgG1), lambda light chain; Clone from a human scFv phage display library) VH: not shown VL: QSALTQPASVSGSPGQSITISCTGTSSDVGGYNYVSWYQQHPGKAPKLMIYDVSNRPSGVSNRFSGSKSGNTASLTISGLQAEDEADYYCSSYTSSNTLVFGTGTKVTVLG | 0.0935 | 0.0171 | 183000 | 0.0129 | 0.0103 | 0.0084 | 0.0085 | 0.0101 | 0.00221 | 172000 | 0.0935 | 0.0752 | 0.0935 | 0.0895 | – | –
2 | ET160-61 (antibody, human IgG1, V domains shown, Tested as human IgG1 (hIgG1), lambda light chain) VH: QVQLVESGGGLVQPGRSLRLSCAASGFTFDDYAMHWVRQAPGKGLEWVSGISWNSGSIGYADSVKGRFTISRDNAKNSLYLQMNSLRAEDTAVYYCASSLRYFEWPIDYWGQGTLVTVSS VL: NFMLTQPLSVSESPGKTVTISCTANGGSLASKYVQWFQQRPGSSPTTVIYDDNLRPSGVPDRFSGSIDTSSNSAALTISGLKTEDEADYYCQSYDNSSVVFGGGTKLTVLG | 0.0277 | 0.00232 | 84000 | – | 0.0227 | 0.0041 | 0.0217 | 0.0194 | 0.00193 | 127000 | – | 0.0108 | 0.0277 | 0.0459 | 0.0151 | 0.0151
3 | ET160-72 (antibody, human IgG1, V domains shown, Tested as human IgG1 (hIgG1), lambda light chain) VH: QVQLVQSGGGVVRSGGSLRLTCAASGFTFGDYGMSWVRQAPGKGLEWVSGINWNGGGTGYADSVKGRFTISRDNAKDSLYLQMNSLRAEDTALYYCARVWGCGSTTCYEGADDAFDIWGQGTMVTVSS VL: LPVLTQPPSISGAPRQRVTISCSGARSNIGNNAVNWYQQVPGEAPKLLIFYDDQQPSGISGRFSGSKSGTSASLAISGLQSEDEADYYCAAWDDSLNGWVFGGGTKLTVLG | 0.316 | 0.0159 | 50500 | – | 0.0154 | 0.0116 | 0.0116 | 0.0114 | 0.00212 | 134000 | – | 0.138 | 0.316 | 0.182 | 0.0158 | 0.0158
4 | ET160-73 (antibody, human IgG1, V domains shown, Tested as human IgG1 (hIgG1), kappa light chain) VH: QVQLVQSGAEVKKPGESLKISCKGSGYSFTSYWIGWVRQMPGKGLEWMGIIYPGDSDTRYSPSFQGQVTISADKSISTAYLQWSSLKASDTAMYYCARGREQLWLDGMDVWGQGTTVTVSS VL: DVVMTQSPLSLPVTLGQPASISCRSTQSLVHSDGNTYLNWFQQRPGQSPRRLIYGVSNRDFGVPDRFSASGSGTDFTLKINRVEAEDVGVYYCMQGTHWPLTFGQGTKVEIKR | 0.124 | 0.00481 | 38900 | – | 0.0144 | 0.0161 | 0.0163 | 0.0157 | 0.00302 | 143000 | – | 0.0556 | 0.124 | 0.136 | 0.0212 | 0.0212
5 | ET160-74 (antibody, human IgG1, V domains shown, Tested as human IgG1 (hIgG1), lambda light chain) VH: QVQLVQSGAEVKKPGSSVKVSCKASGGTFSSYAISWVRQAPGQGLEWMGWMNPNSGNTGYAQKFQGRVTMTRNTSISTAYMELSSLRSEDTAVYYCARYSFHLDGWGQGTLVTVSS VL: QSVLTQPPSVSAAPGQKVTISCSGSSSNVGNNYVSWYQQVPGTAPKLLIYDNNRRPSGIPDRFSGSKSGTSATLGITGLQTGDEADYYCGTWDNSLRVELFGGGTKVTVLG | 0.108 | 0.0112 | 103000 | – | 0.011 | 0.0101 | 0.0086 | 0.0112 | 0.00161 | 122000 | – | 0.0622 | 0.108 | 0.0119 | 0.0133 | 0.0133
6 | ET160-77 (antibody, human IgG1, V domains shown, Tested as human IgG1 (hIgG1), lambda light chain) VH: EVQLVETGGGLVKPGGSLRLSCAASGFTFSDYYMSWIRQAPGKGLEWVSYISSSSSYTNYADSVKGRFTISRDNAKNSLYLQMNSLRAEDTAVYYCAREGIAAADAFDIWGQGTMVTVSS VL: SYELTQPPSVSVAPGQAATITCAGDNIESKSVNWYQQKPGQAPVLVVYDDTVRPSGIPERFSGSNSGNPATLTISRSEAGDEADYYCQVWDNRRDHVVFGGGTKVTVLG | 0.197 | 0.00987 | 50000 | – | 0.0131 | 0.0114 | 0.0109 | 0.0105 | 0.00222 | 160000 | – | 0.0483 | 0.197 | 0.0531 | 0.0139 | 0.0139
